Measured values reported in US20200172619A1 (UNIVERSIT T STUTTGART, published 2020).
Like-named read-outs stand apart in the source and are kept apart here.

B1: Fv13.7-Fc1k (Fc fusion)
chain 1: HVQLVQSGAEVKKPGSSVKVSCKASGYTFTDFYINWVRQAPGQGLEWIGEIVPSQGEAKYNDKFKARVTITADKSTSTAYMELSSLRSEDTAVYYCARWDFLDYWGQGTTVTVSSGTGGGSGPSVFLFPPKPKDTLMISRTPEVTCVVVDVSHEDPEVKFNWYVDGVEVHNAKTKPREEQYNSTYRVVSVLTVLHQDWLNGKEYKCKVSNKGLPSSIEKTISKAKGQPREPSVFPLAPSSKSTSGGTAALGCLVKDYFPSDIAVEWESGALTSGVHTFPAVLQSSGLYSLSSVVTVPSSSLGTQTYSCSVMHEALHNHYTQKSVEPKSC
chain 2: DVQMTQSPSSLSASVGDRVTITCRSSQSLLHSNGNTYLHWYQQKPGKAPKLLIYTVSNRFSGVPSRFSGSGSGTDFTLTISSLQPEDFATYYCSQSTHVPYTFGGGTKVEIKGTGGGSGPSVFLFPPKPKDTLMISRTPEVTCVVVDVSHEDPEVKFNWYVDGVEVHNAKTKPREEQYNSTYRVVSVLTVLHQDWLNGKEYKCKVSNKGLPSSIEKTISKAKGQPREPSVFIFPPSDEQLKSGTASVVCLVNNFYPRDIAVEWEVDNALQSGNSQESVTEQDSKDSTYSLSSTLTLSKADYEKHKVYSCSVMHEALHNHYTQKSFNRGEC
B2: Fab13.7 (Fab, V domains shown)
VH: HVQLVQSGAEVKKPGSSVKVSCKASGYTFTDFYINWVRQAPGQGLEWIGEIVPSQGEAKYNDKFKARVTITADKSTSTAYMELSSLRSEDTAVYYCARWDFLDYWGQGTTVTVSS
VL: DVQMTQSPSSLSASVGDRVTITCRSSQSLLHSNGNTYLHWYQQKPGKAPKLLIYTVSNRFSGVPSRFSGSGSGTDFTLTISSLQPEDFATYYCSQSTHVPYTFGGGTKVEIK
notes: Monovalent anti-human TNFR1 control Fab; Its variable domains are those used in Fv13.7-Fc1k and Fv13.7x-Fc1k
B3: Fv13.7x-Fc1k (Fc fusion)
chain 1: HVQLVQSGAEVKKPGSSVKVSCKASGYTFTDFYINWVRQAPGQGLEWIGEIVPSQGEAKYNDKFKARVTITADKSTSTAYMELSSLRSEDTAVYYCARWDFLDYWGQGTTVTVSSGTGGGSGPSVFLFPPKPKDTLMISRTPEVTCVVVDVSHEDPEVKFNWYVDGVEVHNAKTKPREEQYNSTYRVVSVLTVLHQDWLNGKEYKCKVSNKGLPSSIEKTISKAKGQPREPSVFIFPPSDEQLKSGTASVVCLVNNFYPRDIAVEWEVDNALQSGNSQESVTEQDSKDSTYSLSSTLTLSKADYEKHKVYSCSVMHEALHNHYTQKSFNRGEC
chain 2: DVQMTQSPSSLSASVGDRVTITCRSSQSLLHSNGNTYLHWYQQKPGKAPKLLIYTVSNRFSGVPSRFSGSGSGTDFTLTISSLQPEDFATYYCSQSTHVPYTFGGGTKVEIKGTGGGSGPSVFLFPPKPKDTLMISRTPEVTCVVVDVSHEDPEVKFNWYVDGVEVHNAKTKPREEQYNSTYRVVSVLTVLHQDWLNGKEYKCKVSNKGLPSSIEKTISKAKGQPREPSVFPLAPSSKSTSGGTAALGCLVKDYFPSDIAVEWESGALTSGVHTFPAVLQSSGLYSLSSVVTVPSSSLGTQTYSCSVMHEALHNHYTQKSVEPKSC
notes: CH2 carries A327G, A330S and P331S (EU numbering)
B4: MCSPN-CD3N-hFc1k (bispecific antibody)
chain 1: QVQLVQSGAEVKKPGASVKVSCKASGYTFTRSWMNWVRQAPGQGLEWMGRIYPGDGDTNYNGKFKGRVTMTRDTSTSTVYMELSSLRSEDTAVYYCARGNTVVVPYTMDYWGQGTTVTVSSGGGGSGGGGSGGGGSDIQMTQSPSSLSASVGDRVTITCRASESVDSYGNSFMHWYQQKPGKAPKLLIYLASNLESGVPSRFSGSGSGTDFTLTISSLQPEDFATYYCQQNNEDPLTFGGGTKVEIKRAAADKTHTCPPCPAPPVAGPSVFLFPPKPKDTLMISRTPEVTCVVVDVSHEDPEVKFNWYVDGVEVHNAKTKPREEQYNSTYRVVSVLTVLHQDWLNGKEYKCKVSNKGLPSSIEKTISKAKGQPREPSVFPLAPSSKSTSGGTAALGCLVKDYFPSDIAVEWESGALTSGVHTFPAVLQSSGLYSLSSVVTVPSSSLGTQTYSCSVMHEALHNHYTQKSVEPKSC
chain 2: DIQMTQSPSSLSASVGDRVTITCRASQDIRNYLNWYQQKPGKAPKLLIYYTSRLHSGVPSRFSGSGSGTDFTFTISSLQPEDIATYYCQQGNTLPWTFGQGTKLEIKRGGGGSGGGGSGGGGSQVQLVQSGAEVKKPGSSVKVSCKASGGTFSGYTMNWVRQAPGQGLEWMGLINPYKGVSTYNGKFKDRVTITADKSTSTAYMELSSLRSEDTAVYYCARSGYYGDSDWYFDVWGQGTLVTVSSSGGGSGGGGSDKTHTCPPCPAPPVAGPSVFLFPPKPKDTLMISRTPEVTCVVVDVSHEDPEVKFNWYVDGVEVHNAKTKPREEQYNSTYRVVSVLTVLHQDWLNGKEYKCKVSNKGLPSSIEKTISKAKGQPREPSVFIFPPSDEQLKSGTASVVCLVNNFYPRDIAVEWEVDNALQSGNSQESVTEQDSKDSTYSLSSTLTLSKADYEKHKVYSCSVMHEALHNHYTQKSFNRGECGGGGSGGGGSGGGGSGTGGSGG

Key:
[1] = molecular target: T1, human TNFR1-Fc fusion protein (human, UniProt P19438 30-211); assay: ELISA, immobilized human TNFR1-Fc
T1 construct: Provided by Baliopharm AG; Coated at 1 ug/ml in the ELISA; also called huTNFR1-Fc; immobilized human TNFR1; not shown: Fc part not described
T1 sequence (looked up): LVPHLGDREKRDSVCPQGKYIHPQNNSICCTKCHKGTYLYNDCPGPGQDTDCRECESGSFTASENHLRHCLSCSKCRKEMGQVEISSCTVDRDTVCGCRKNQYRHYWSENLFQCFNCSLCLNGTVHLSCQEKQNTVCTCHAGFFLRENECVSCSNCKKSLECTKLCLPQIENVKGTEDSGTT
Protocol: Microtiter plates were coated with 100 μl of TNFFR1-Fc fusion protein (1 μg/ml in PBS) and incubated at 4° C. overnight.

[2] = molecular target: T2, TNFR1 on the surface of cells (HT1080, HeLa, Kym-1) (human, UniProt P19438 30-455); assay: cell-based or functional assay
T2 sequence (looked up): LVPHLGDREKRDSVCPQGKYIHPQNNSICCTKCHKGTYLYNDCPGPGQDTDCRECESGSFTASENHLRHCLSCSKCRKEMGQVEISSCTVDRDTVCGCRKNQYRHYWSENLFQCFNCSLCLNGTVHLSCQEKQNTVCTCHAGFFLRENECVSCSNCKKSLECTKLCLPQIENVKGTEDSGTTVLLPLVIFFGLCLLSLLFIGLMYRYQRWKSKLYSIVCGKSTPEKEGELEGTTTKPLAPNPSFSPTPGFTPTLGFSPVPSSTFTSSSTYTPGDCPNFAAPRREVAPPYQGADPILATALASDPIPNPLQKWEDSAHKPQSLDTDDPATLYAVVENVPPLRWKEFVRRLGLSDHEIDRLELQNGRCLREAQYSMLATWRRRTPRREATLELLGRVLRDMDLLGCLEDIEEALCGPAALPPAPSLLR

[3] = molecular target: T2, TNFR1 on the surface of cells (HT1080, …); assay: cell-based or functional assay; remark: listed apart in the source
[4] = molecular target: T1, human TNFR1-Fc fusion protein; assay: ELISA, immobilized human TNFR1-Fc; remark: listed apart in the source
Protocol: (§1) Microtiter plates were coated with 100 μl of TNFFR1-Fc fusion protein (1 μg/ml in PBS) and incubated at 4° C. overnight. The residual binding sites were blocked with 2% MPBS (skim milk in PBS, 200 μl per well) at room temperature for 2 hours and subsequently washed twice with PBS. 100 μl of the samples diluted in 2% MPBS were incubated at room temperature for 1 hour prior to the last incubation step with 100 μl of the HRP conjugated detection antibodies in 2% MPBS. Bound protein was detected with 100 μl TMB substrate solution, the HRP-reaction was stopped by the addition of 50 μl 1 M H2SO4 and the absorption at the wavelength of 450 nm was measured using the Infinite microtiter plate reader (TECAN, Maennedorf, Switzerland). Between each incubation step and in advance of the detection, the plates were washed three times with PBST and twice with PBS.

[5] = molecular target: T2, TNFR1 on the surface of cells (HT1080, …); assay: cell-based or functional assay; remark: listed apart in the source
[6] = molecular target: T2, TNFR1 on the surface of cells (HT1080, …); assay: cell-based or functional assay; remark: listed apart in the source
[7] = molecular target: T1, human TNFR1-Fc fusion protein; assay: ELISA, human TNFR1-Fc
Protocol: as §1

[8] = molecular target: T1, human TNFR1-Fc fusion protein; assay: ELISA, immobilized human TNFR1-Fc; remark: listed apart in the source
[9] = molecular target: T1, human TNFR1-Fc fusion protein; assay: ELISA, human TNFR1-Fc (CHO-produced protein, Example 14)
Protocol: as §1

[10] = molecular target: T1, human TNFR1-Fc fusion protein; assay: QCM (Attana), real-time binding, one-to-one fit
Protocol: (§2) FIG. 36. […] Five concentrations between 128 nM and 4 nM were used to generate the kinetic data in b) and a one-to-one binding algorithm was employed for fitting.

[11] = molecular target: T1, human TNFR1-Fc fusion protein; assay: QCM (Attana), real-time binding, 128 nM to 4 nM, one-to-one fit
Protocol: as §2

[12] = molecular target: MCSP (melanoma-associated chondroitin sulfate proteoglycan) on WM35 cells (human, UniProt Q6UVK1 30-2322); assay: cell-based or functional assay
Chain of MCSP (melanoma-associated chondroitin sulfate proteoglycan) on WM35 cells (Q6UVK1 30-2322): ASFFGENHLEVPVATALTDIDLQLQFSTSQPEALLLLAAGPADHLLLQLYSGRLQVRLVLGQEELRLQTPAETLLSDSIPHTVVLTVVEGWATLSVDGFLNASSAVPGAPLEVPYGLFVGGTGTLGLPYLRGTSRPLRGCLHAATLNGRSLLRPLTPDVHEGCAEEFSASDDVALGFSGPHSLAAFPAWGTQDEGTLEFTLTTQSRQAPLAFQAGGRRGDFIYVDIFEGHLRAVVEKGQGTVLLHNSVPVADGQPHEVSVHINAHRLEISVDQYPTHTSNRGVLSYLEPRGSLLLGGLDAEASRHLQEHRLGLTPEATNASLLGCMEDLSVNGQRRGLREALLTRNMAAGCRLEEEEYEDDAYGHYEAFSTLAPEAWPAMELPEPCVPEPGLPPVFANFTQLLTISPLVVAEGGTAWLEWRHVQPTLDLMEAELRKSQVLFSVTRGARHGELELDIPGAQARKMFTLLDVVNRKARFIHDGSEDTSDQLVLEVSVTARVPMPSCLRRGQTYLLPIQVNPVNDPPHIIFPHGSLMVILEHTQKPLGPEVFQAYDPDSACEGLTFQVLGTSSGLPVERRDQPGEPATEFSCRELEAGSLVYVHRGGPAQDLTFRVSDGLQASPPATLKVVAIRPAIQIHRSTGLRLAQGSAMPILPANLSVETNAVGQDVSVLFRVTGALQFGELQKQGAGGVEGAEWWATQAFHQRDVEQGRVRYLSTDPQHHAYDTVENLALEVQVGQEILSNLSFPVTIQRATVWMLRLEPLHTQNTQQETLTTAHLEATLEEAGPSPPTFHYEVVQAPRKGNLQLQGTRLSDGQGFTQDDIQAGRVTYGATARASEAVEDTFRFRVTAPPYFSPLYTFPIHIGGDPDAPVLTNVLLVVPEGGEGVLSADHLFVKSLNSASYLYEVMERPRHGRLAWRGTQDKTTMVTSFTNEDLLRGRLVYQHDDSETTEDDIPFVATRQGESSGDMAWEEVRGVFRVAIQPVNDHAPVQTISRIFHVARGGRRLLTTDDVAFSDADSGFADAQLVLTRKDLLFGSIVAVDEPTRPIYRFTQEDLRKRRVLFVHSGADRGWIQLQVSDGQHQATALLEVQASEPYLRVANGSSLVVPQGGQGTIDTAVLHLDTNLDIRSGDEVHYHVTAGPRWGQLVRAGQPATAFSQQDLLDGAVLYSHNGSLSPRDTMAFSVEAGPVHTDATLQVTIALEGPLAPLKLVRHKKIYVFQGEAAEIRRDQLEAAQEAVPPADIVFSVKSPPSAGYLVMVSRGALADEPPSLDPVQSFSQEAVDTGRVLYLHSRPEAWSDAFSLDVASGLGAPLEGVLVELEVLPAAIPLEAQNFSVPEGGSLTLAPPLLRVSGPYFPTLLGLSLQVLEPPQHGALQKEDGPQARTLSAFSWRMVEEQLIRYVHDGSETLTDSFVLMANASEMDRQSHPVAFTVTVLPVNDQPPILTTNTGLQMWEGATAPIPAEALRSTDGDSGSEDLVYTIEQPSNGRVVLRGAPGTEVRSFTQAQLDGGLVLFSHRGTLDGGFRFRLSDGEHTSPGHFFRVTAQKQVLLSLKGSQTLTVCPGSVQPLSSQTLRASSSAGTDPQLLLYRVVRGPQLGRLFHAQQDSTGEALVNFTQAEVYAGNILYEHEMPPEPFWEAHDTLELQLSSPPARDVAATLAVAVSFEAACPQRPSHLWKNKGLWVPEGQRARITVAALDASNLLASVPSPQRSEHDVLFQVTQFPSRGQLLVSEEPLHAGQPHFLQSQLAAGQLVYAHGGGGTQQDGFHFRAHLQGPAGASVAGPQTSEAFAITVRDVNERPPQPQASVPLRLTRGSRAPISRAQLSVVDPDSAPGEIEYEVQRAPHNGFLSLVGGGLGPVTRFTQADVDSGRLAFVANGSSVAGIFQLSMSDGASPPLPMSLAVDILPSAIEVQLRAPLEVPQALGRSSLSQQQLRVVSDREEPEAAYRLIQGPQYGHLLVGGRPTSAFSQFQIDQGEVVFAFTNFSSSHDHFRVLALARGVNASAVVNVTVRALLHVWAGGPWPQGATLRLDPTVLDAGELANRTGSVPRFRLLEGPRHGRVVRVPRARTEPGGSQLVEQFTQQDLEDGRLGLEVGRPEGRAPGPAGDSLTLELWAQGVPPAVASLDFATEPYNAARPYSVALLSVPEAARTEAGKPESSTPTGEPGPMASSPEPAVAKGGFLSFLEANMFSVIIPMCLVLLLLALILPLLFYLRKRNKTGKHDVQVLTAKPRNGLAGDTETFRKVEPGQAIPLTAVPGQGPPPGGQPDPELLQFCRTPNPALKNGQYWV

Row | Binder | EC50 [1] [nM] | IL-8 Inhibition IC50 [2] [nM] | factor of increased inhibitory potential (IL-8 inhibition) compared to ATROSAB [3] [fold] | fold reduced bioactivity (IL-8 inhibition) compared to Fab13.7 [3] [fold] | fold reduced binding affinity compared with Fab13.7 [4] [fold] | IC50, Cell death induction [nM] (Kym-1 cells, 0.01 nM TNF) [5] | IC50, IL-6 [nM] (HeLa cells, 0.1 nM TNF) [5] | IC50, IL-8 [nM] (HT1080 cells, 0.1 nM TNF) [5] | IL-8 Inhibition IC50 [6] [nM] | IC50, IL-6 release (HeLa cells) [3] [nM] | EC50 [7] [nM] | EC50 [8] [nM] | EC50 [9] [nM] | koff [10] [s⁻¹] | kon [10] [M⁻¹ s⁻¹] | Kd [11] [nM] | Cytotxicity IC50 [12] [nM]
1 | B1 | 1.18 | 39.7 | 2.5 | 1.5 | 1.9 | – | – | – | – | – | – | – | – | – | – | – | –
2 | B2 | 0.61 | 26.3 | – | – | – | 9.5 | 37.1 | 12.7 | 13 | 31.7 | 0.17 | 0.9 | – | – | – | – | –
3 | B3 | – | – | 2.8 | 3.7 | 2.1 | 16.2 | 54.5 | 24.2 | 48 | – | – | 1.9 | 0.37 | 0.000983 | 369000 | 2.66 | –
4 | B4 | – | – | – | – | – | – | – | – | – | – | – | – | – | – | – | – | 0.2
